We go through 2 molecules from PMC9631798, “Engineered human cytokine/antibody fusion proteins expand regulatory T cells and confer autoimmune disease protection” (Cell reports, 2022).

Assay [1] addresses T1, Biotinylated human IL-2 (Homo sapiens, UniProt P60568, biotin on the biotin acceptor peptide (BirA ligase)).
T1 construct: human interleukin-2; limits not restated for this construct (hIL-2 is residues 1-133 in the other constructs); the hexahistidine tag follows the BAP; also called biotinylated hIL-2; hIL-2 (immobilised); source: HEK 293F (gWiz vector), purified (Ni-NTA, SEC), biotinylated with BirA
Description: BLI; biotinylated hIL-2, hIL-2Rα or hIL-2Rβ immobilised on streptavidin biosensors; serial dilutions of analyte in PBSA (PBS pH 7.2, 0.1% BSA); 300 s association, 600 s dissociation; equilibrium titration, first-order fit; F5111 IC LN25 and LN35 as SEC peak P3, LN15 as majority peak; cytokine/antibody complexes pre-formed at 1:1 molar ratio, 60 minutes at 37°C. The following applies: both partners purified. Background: In BLI a coated tip is dipped into the sample, and binding shifts an interference pattern.

For assay [2], the target named is T2, yeast-displayed hIL-2 (residues 1-133) (human, UniProt P60568).
T2 construct: human interleukin-2, residues 1-133; a 3C protease site lies between Aga2 and the cytokine; not shown: Aga2 (yeast agglutinin protein), N-terminal, kept
The assay is described as follows: flow cytometry on cells; yeast surface display: hIL-2 or mIL-2 displayed on yeast (Aga2 fusion); serial dilutions of recombinant F5111 antibody, 2 hours at room temperature in PBE (PBS, 0.1% BSA, 1 mM EDTA); detected with anti-human IgG Fc APC; first-order binding model. The following applies: one partner purified. (In general: A flow cytometer gives signals particle by particle.)

Assay [3] has as its target T3, yeast-displayed mIL-2 (residues 1-149) (Mus musculus, UniProt P04351).
T3 construct: mouse interleukin-2, residues 1-149; a 3C protease site lies between Aga2 and the cytokine; also called mouse IL-2; not shown: Aga2 (yeast agglutinin protein), N-terminal, kept
The assay is described as above. The following applies: one partner purified.

T1 sequence (P60568 21-153): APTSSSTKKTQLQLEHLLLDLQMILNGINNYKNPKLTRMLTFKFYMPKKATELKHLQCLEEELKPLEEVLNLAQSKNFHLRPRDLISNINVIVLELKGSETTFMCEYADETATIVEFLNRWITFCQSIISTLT
T2 sequence (P60568 21-153): as above
T3 sequence (P04351 21-169): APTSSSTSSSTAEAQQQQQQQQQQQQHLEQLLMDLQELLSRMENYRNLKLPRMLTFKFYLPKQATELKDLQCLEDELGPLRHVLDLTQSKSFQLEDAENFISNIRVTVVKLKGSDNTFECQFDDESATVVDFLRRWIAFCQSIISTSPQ

B1: F5111 antibody (antibody, V domains shown)
VH: QLQLQESGPGLVKPSQTLSLTCTVSGGSISSGGYYWSWIRQHPGKGLEWIGYIYYSGSTYYNPSLKSRVTISVDTSKNQFSLKLSSVTAADTAVYYCARTPTVTGDWFDPWGRGTLVTVSS
VL: NFMLTQPHSVSESPGKTVTISCTRSSGSIASNYVQWYQQRPGSSPTTVIYEDNQRPSGVPDRFSGSIDSSSNSASLTISGLKTEDEADYYCQSYDSSNVVFGGGTKLTVL
notes: human IgG1 constant heavy chain; human lambda constant chain; human IgG1 lambda; anti-hIL-2; also called F5111 Ab; F5111 human immunoglobulin G1 (IgG1) antibody; source: HEK 293F, transient co-transfection of HC and LC plasmids, purified (protein G, SEC); copies: 2 + 2
B1: the binding result in assay [1] is “binds”; in assay [2], “binds”; in assay [3], “no binding”.

B2: F5111.2 Antibody (N297A) (antibody, V domains shown)
VH: QLQLQESGPGLVKPSQTLSLTCTVSGGSISSGGYYWSWIRQHPGKGLEWIGYIYKSGSAYYSPSLKSRVTISVDTSKNQFSLKLSSVTAADTAVYYCARTPTVTGDWFDPWGRGTLVTVSS
VL: NFMLTQPHSVSESPGKTVTISCTRSSGSIASNYVQWYQQRPGSSPTTVIYEDNQRPSGVPDRFSGSIDSSSNSASLTISGLKTEDEADYYCQTYDSIDVYFGGGTKLTVL
notes: as the VH of m21 (F5111.2; human IgG1 constant heavy chain with N297A in the Fc region; 297 is EU numbering); as the VL of m21 (F5111.2); human lambda constant chain; in all studies the F5111.2 antibody includes N297A; the isotype platform is stated for F5111 only; source: HEK 293F, transient co-transfection, purified (protein G, SEC); copies: 2 + 2
For B2, the binding result in assay [1] is “binds”.
